In the DeepSol protein solubility set:

Test: soluble on expression in E. coli; label from the status in PepcDB or PDB records

Row | Sequence | soluble on expression in E. coli
1 | SSKAIPKQDIPEIAYERFTLPNGLTVIVHEDHKAPVIAVNVWYHIGSADEPARKTGFAHLFEHLMFSGSENHKASYFQPFEKIGATGMNGTTWFDRTNYFQTVPTTALDMALWMESDRMGHLLGAIGQKELDTQRGVVKNEKRQRENVPYGRVTQNILSNLFPANHPYQHSTIGSMEDLEAASLADVKSWFQAHYGAANATLVLAGDITLAEARDKAAKYFGDIPAGPPVA | not soluble
2 | MHPRSKLSQAQRELAVDLFEEGYGSRAVANRLGVRREQVRHLEDRFRLHGRLCLVSKPTKKQYSFDTKMEILRRYRTGELKSDLAKEYGLSSPNLISHWVWQVNKGGSDALQPKPKGRPKGSGQSVPMTEEDTLRRENELLKAEVAYLKKLRDLREQRRG | not soluble
3 | MGSDKIHHHHHHMEYEQLLQSELGELEIIREELQNKEYRGMIVKTAKDGTTIRTRLAKKTDKKTGYFVAFWEKDELGKNCPFDENDSADFLCIVVIDGDLNGLFVFPRQCLIEKGILTSEVGIGKMAARFYPSWCQDLNKTAEKTQAWQQVYFKNYSIRKEDH | not soluble
4 | MIPRKEMAAVSTEMTMAEMLEVMLKEKYTRWPVTDGDKDSVLGLVNTKHLFSDLLFMTEEERMKMTIHPYVRPVIEVIETIPVHDLLIKMQRERIHMAILSDEYGGTSGLVTTEDILEEIVGEIR | not soluble
5 | RKNSQSETFKVGVLQYVSHNALDEIYRGIKAGLKEEGYSGKKIKIDFMNAEGDQSKVQTMSQTLVNHKNDVLVGIATPAAQGLASATKKTPIIMGAVTDPVGAKLVKDLKKPNGNVTGVSDKTPISDQVSLIKKLTPDVKTVGILYSSSEDNSKSQVEEFKKIAEKKGYKVLEYSVPSTNEIATTMNVMLDKTDAVWIPLDNTIASAFPTVVSAAKTAKKPIYPSVDTMVTEGGLASVVVDQYKLGVATGKMAVKVFEGKKVSQLPVDIFDKGTPVVNKKVAKELGIDIPSDILKKAKQQKNQ | not soluble
6 | HNITRPIRSMSSTCREINKNKGNYRSYRFESVKRKDEIGQLAVTFESLLRNMDNYTKMEYTSKMSATLAHEIKNPIAGIRSGIQLLKGRAAKESDKMLCESMIKEVDRVTTLIMNLFTLSVKKESPKELISFEKVIGEIAMIYSKGAEGQGVVMETAVEEGLTGYLNENEFRQIAHNLISNSIKSVIPGIEGRIRISGRESGNKALIEFQDNGKGMSREELTRAMEPFYTKSINGIGIGLAIVKKLVEQNGGLMEMASACGEGTCVRLTFYRRVEDYEENISRG | not soluble
7 | MSDEKSTTPTAQLDAPADGNMNDLTSLIQGVLQQTQDRFQHMSDQIIRRIDDMTTRIDDLEKNINDLLQSNQVEHPPSAQ | not soluble
8 | MDTQTLNSDLRVFMHHIYEFEKGVRSMVLATLANDDIPYAEERLRSRQIPYFAQPTPNTERTNLFFGCKECMEAIRLFVSGRSLNSLTPEEDFIIGAMLGYDICRQCERYCRRKSNS | soluble
9 | MKAFDQVNHSLLLQKLHDFGINPLFCNWFHDFLSSRTFSVKVNNHIDPNIHPISSGVPKGSVSGPFLFLIFINSLLLSVPPSISCSAFADDLKVYSHSPPLIQTTIDLITTWSENNKLPLAVHKAALLNKLGFSSNCVLLLAPLINSLVCRLLAASRTGVSTVAHSKTCLLHLGKKNPKTVYKINNLPISPSNIARDLGILTDSKLTFKPHIKKIVSLALLRCKQLLKSFKSLCPEFYCNLFKTYILPLIEYGSAVYSPKPSSSLSTLLEKPLRWYSQKVLQKFNVSYSLYNDRLKSLNLHSIRHRRLKSKLILLYKFCCGTSFLRRKETFFKLSTSSRRPMRIICHNPSSNNFFSDTISFWNAITNNCDTFLSPIHFENLVDNSITRL | not soluble
10 | MAHHHHHHMQKIQNAVRRRSRFFKWDVKWYSSKVKVEKKAGERHNDRHDSHDSHDSHKDIPQDSRPDTRVGQERKYNLWRWGCSGEGIFSSVKVGEKNKMPEKVPNFENAKIEKLSAGCDHAAFIVDGRIFTYGLNDKGQLGRSIEEENDQNKSYTLTPREVKTEGNVKFKDVCCGYKHTVAVDVNNNLYSWGWGGNFFKGANGLGHGNKQNLSTPKKVESFKSDDSEFVNICCGDQHSLVLTKNGKVYGCGRGEFGRLGKGNHGDQLFFEEIDFFISNNITVKGISCGHSFSAALSTDGEVYVWGRNDYGQLGIENSIGDLYSHEVYPNKVKYFDMENIKIKFIACGDNHMIACSENNVIFFWGSRAWLEPKAITLSPLYQNSVIKKNIDKIEAGGNTYYYSMLLSDNKLYSWGKYNSSCLALGDKKNHNEPTLVDSKLFNDEIVCDISCGRGRVLAKTLAAD | not soluble
11 | MGSSHHHHHHSSGRENLYFQGHMLLHIPAIFTAEEVSRIRAALEQAEWADGKATAGYQSAKAKHNLQLPQDHPLAREIGEAMLQRLWNHPLFMSAALPLKVFPPLFNCYTGGGSFDFHIDNAVRDVHGGRERVRTDLSSTLFFSDPEDYDGGELVIQDTYGLQQVKLPAGDLVLYPGTSLHKVNPVTRGARYASFFWTQSLVREDSQRTLLFEMDQSIQRLTRDVPDHPSLIRLTGTYHNLLRRWSEL | soluble
12 | MYVYDEYDQRIVEDRVKQFRDQTRRYLAGELTGEEFRPLRLQNGLYIQRYAPMLRIAVPYGLLSSRQLRKLAQIARDYDKGYAHISTRQNVQFNWPELEDVPEILAELATVQMHAIQTSGNCIRNTTTDQFAGVARDELVDPRPWCEIIRQWSTFHPEFAHLPRKFKIAVNGAVSDRAAIEVHDIGLEAVKNEAGELGFRVSVGGGLGRTPIVGSFINEFLPWQHLLGYLDAILRVYNRYGRRDNKYKARIKILVKALTPEVFAERVEAEWANLKDGPSTLTEAEVQRVAAHFVDPAYKALDDLDESLARLDAEHPGFARWRARNTFAHKKPGYVAVTLSLKPTGTAPGDVTDKQLEAIADLADRYSFGEVRNSHNQNIILADVEQGELFALWGELRELGFATPNVGLLTDIICCPGGDFCSLANAKSIPIAEAIQRRFDNLDYLFDIGDIDLNISGCMNACGHHHVGHIGILGVDKKGAEFYQVSLGGSSARDASLGQILGPSFAQEQMADVIDKIIQVYVERRTEEEPFIDTFRRIGIDPFKERVYAAN | not soluble
13 | MSLKRNNVNVVNRTKNSNPEFRIPLHYKHKIPFVLSDAIERNHDQDLTAEVHFYLALPPERCRRIYKSRRKALNAMLRAILYHVNVISKQVPISATMLTEYCGLTTISAAGNKSVTRGTRTLAMLRDLGFITYRQCWDRVSRRYFPSAIAVTERLIDLVGICPERWRTELNNKLANYNHKIFKKEGITLNEYDYARNLREDQLKRSYMYHSNRKEIKKKKKEATRLEKLVKIKGENELRHLISRQVSEEFLKGFIPGAQLKDLKKIVDKRINTLKKIAKSLHEGHHHHHH | not soluble
14 | MGSDKIHHHHHHMLTKTIIGLDVGRSAVKVVAFANGLYYRLTFPSLVSPAFPINDEGTAARAELETVEVLGKRYFTGDTARLQGGVNMSVGLSHDWTNGPEYLALVASTMKRLAALGVPGLDSPYIVLGTPASLFGRQKEALAQRTQAVVAAEMKVLPQPMGAYCNFFMDARGVPIKDRQKRPDGKNRSWAVVEVGHYTTDFLLMREGNYIERAAVSCEGVHFAAENLVRILAAKDIQATPLTAEEALRTGVIVDFGERRIEAQVAEAVDHVVQKIMTMADSVLSNDVRSLDGVLLAGGGAPILAAGLQKKWPHTVLLENPRMAVADGFCRYGVGQMLRRAMAAEKATA | not soluble
15 | MGSDKIHHHHHHMQSFKIIKPIHILTPYVRYYWILEDGADVSVSERTLPTGCIQLVFHRGKRLLLVGKKESQPQAFICGQCLNFSDVMSAGKIEMITVVFQPYAARAILQLPLKFFYGELIAVDAIADLELSILSRKVIEADDHETCIRLIEQFLIHRLYRFEGYEYNLKRISAVLHQINEQAKTNISELSETACLSSKQFNRIFLDYVGATPKEFLRIVRMQRALFKVQQNPSISFAQLAYECGFSDQSHMIKEFKLFSGYTPTEYLSLCAPYSDYFSE | not soluble
16 | MGSDKIHHHHHHMIVYNSGAALEKARVRVGLVGTGYAAKFRAEALLHDERSQLIAVVGHTAEKTEAFVREYQIKALSSWQELVEREDVDLVVICTVNRDHGAIARAALTNGKHVIIEYPLSLDVVEADELIALAKAQKKLLHVEHLELLGGLHQALKQNLAKIGEVFYARYSTINPQNPAPRKWTYNHELFGFPLIGALSRLHRLIDLFGTVFTVNCHQRYWEIEPEYYQTCFCTSELCFNSGLLAQVVYGKGESIWQSERKFEVHGEKGGLVFDGDTGIFIQPEETTPIEVGPRRGLFAKDTAMVLDHLFDGTPLYVTPEQSLYTLKVADAAQRAAQTGFTMFM | not soluble
17 | MVKCLSAHNKAPHVSVITPSYNSRRFIGETILSVQNQSYENWEMIIVDDCSTDQSAAKIKEIIEGDSRIRLLSLKENVGAAKARNLAIREARGRYIAFLDSDDIWLPHKLKTQLLFMEEMNIAFSYASYSLIDENGNELNREVSVPKSVDYHYLVGNTIIGCLTVMIDREKIPYVEMPSVQPEDTALWLNLLHEGHEAKGIQQVLAKYRIVANSVSSNKVRAAFRYWKLLRDQKSLNAVQSFYYFSKYAYHAYKKNKINVVGKTQLLEHHHHHH | not soluble
18 | MTEGLAVELAGLRSFSIVMPAYNVVTQRGERIFRETLESIAASCRYLQQHFPYTPEGELILISDGSTDRTCDVAMAGWPNAVPLQLVGLPTNVGIAAARNIGVRLAKGEVIFFCDADDLYRPEHLFLALSVLNQPLPEPYAPAYFGAVRTGVYCRDRLHPYWHKSLEQTLVLNLAVRREVHEFIGGFPEDEVFRQFRYGAEDVAYAYWLHQFCHTARLEQRTVEYRRFPNSVFDRQLKKFQAAPGTVADDLDEGDRQQEAQIRQIMATRLQELQAKAAQGVALEHHHHHH | not soluble
19 | MRLLPLVAAATAAFLVVACSSPTPPRGVTVVNNFDAKRYLGTWYEIARFDHRFERGLEKVTATYSLRDDGGLNVINKGYNPDRGMWQQSEGKAYFTGAPTRAALKVSFFGPFYGGYNVIALDREYRHALVCGPDRDYLWILSRTPTISDEVKQEMLAVATREGFDVSKFIWVQQPGS | soluble
20 | MSLKITWLGHAAFLLEGSMKVLIDPFLTGNPNAPVKPEEVKADYILVTHGHGDHLGDAVEIAKRNNAPIICIHELSRILSRYDVETMGMNMGGTARTGSIAVTMVPAWHSADLEDEQGNIISAGLPAGFIVSMDGVRVYHTGDTDVFLDMQLIGELHRPDVMLLPIGDYYTMGIAGAVKALELVKPKVAIPMHYNTFPLVEKDPEDFRKAVKAKGLDVEVVILKPGESYEFNKEGGSHHHHHH | soluble
21 | MSQYERFDSVLLSMAQQLSGGVPEMLDVLFEFLSRKTDFYSGAGVDQARTLLLEKFDKHGGKAMKEAEEAKKRKEEQERKLAERRAAQKAKEEEEFRNAKVVEVTDEEAAAFEKEQAKNSVENLEKFVDNEGETSKDAEVEDEDSKLMKPNSGNGADLAKYQWTQTLQELEVKIPIAAGFAIKSRDVVVKIEKTSVSVGLKNQAPIVDGKLPHAIKVENCNWVIENGKAIVLTLEKINDMEWWNRFLDSDPPINTKEVKPENSKLSDLDGETRAMVEKMMYDQRQKEMGLPTSDEKKKHDMLQQFMKQHPEMDFSNAKIG | soluble
22 | MLLAGLTSCQQKGYTITGTVDSTLNLDGNMVYIQLSQGNNLDSTTIRNGAFTFTGEHIDTAKLAYIVTASPEHNVVPIIFILEDGKISAKIGEYAAKGTPLNEENFKYSAKINELENSFKLKMEEIQADTARAAEETQAMLEKEYTAMLGEKSKITTELYQSHTNDALGARLLQNILYGEGSDSDVIAEARKKAGPIVLAHPNIVHLLAMIDNLADTQPGKMAKNFAGTDAEGNEVELFKYVGQGNYAVVDFWASWCGPCRREIPYIAEANAKFAEKGLQVVGIVVWDKMEDHLKAKEALNVVWPQIFDAKNVATDMYGIQGIPQVILFGPDGTIIERDLRGEKLIEKLSEIYNSNKK | not soluble
